Experimental data from paper PMC5577222.
One block for each binder: values may come before it.

What was measured:
[1] = molecular target: microtubules polymerized from porcine brain tubulin (taxol-stabilized) (porcine) (UniProt P02550); assay: single-molecule TIRF microscopy; rhodamine-labelled taxol-stabilized microtubules held on the surface by anti-beta-tubulin; eGFP-DRG1 at 0.08, 0.4, 4, 40 nM in BRB80 assay buffer with 1 mM GTP, 25 °C; residence times from kymographs, not corrected for bleaching
[2] = molecular target: microtubules polymerized from porcine brain tubulin (taxol-stabilized) (porcine) (UniProt P02550); assay: co-sedimentation; 1 µM recombinant DRG1 with different concentrations of taxol-stabilized microtubules; Coomassie quantified with ImageJ, binding curve fitted

residence time, diffusive population, 4 nM eGFP-DRG1 [1]: 2.2 s | residence time, diffusive population, 40 nM eGFP-DRG1 [1]: 2.6 s | residence time, immobile fraction, 0.08 nM eGFP-DRG1 [1]: 12 s | residence time, immobile fraction, 0.4 nM eGFP-DRG1 [1]: 12.4 s | residence time, immobile fraction, 4 nM eGFP-DRG1 [1]: 11.1 s | residence time, immobile fraction, 40 nM eGFP-DRG1 [1]: 5.4 s
B1: eGFP-DRG1 (Xenopus laevis DRG1 with N-terminal eGFP) (natural protein)
chain: MSGTLARIAEIEAEMARTQKNKATAYHLGLLKARLAKLRRELITPKGGGGGGPGEGFDVAKTGDARIGFVGFPSVGKSTLLSNLAGVYSEVAAYEFTTLTTVPGVVRYKGAKIQLLDLPGIIEGAKDGKGRGRQVIAVARTCNLILIVLDVLKPLGHKKIIENELEGFGIRLNKQPPNIGFKKKDKGGINLTATCAQSELDNDTVKSILAEYKIHNADITLRSDATADDLIDVVEGNRVYIPCIYVLNKIDQISIEELDIIYKVPHCVPISAHHRWNFDDLLEKIWDYLQLVRIYTKPKGQLPDYTSPVVLPCSHTAAEDFCTKIHKNLIKEFKYALVWGSSVKHNPQKVGKDHVLEDEDVIQIVKK

Kd [2]: 470 nM
B2: recombinant Xenopus laevis Developmentally regulated GTP binding protein 1 (DRG1), full length (natural protein)
chain: B1 chain
